According to publication PMC4353692:

Target: Manduca sexta V-ATPase subunit c (c ring) (Manduca sexta (endogenous in midgut))
Test: cryo-EM structure; M. sexta V-ATPase holoenzyme purified from tissue, in C12E10; 9.4 Å reconstruction (gold standard FSC 0.143); homology models of the subunits flexibly fitted by MDFF; side chains not resolved

With “Manduca sexta V-ATPase subunit c (c ring) (natural protein)” the stoichiometry N was 8.
